{"source": "patent EP3464323B1", "biological_target": "CY5-CAS9:sgRNA complex (1:1 molar ratio) (S. pyogenes), Q99ZW2", "sequence (Q99ZW2 whole entry, one chain of several)": "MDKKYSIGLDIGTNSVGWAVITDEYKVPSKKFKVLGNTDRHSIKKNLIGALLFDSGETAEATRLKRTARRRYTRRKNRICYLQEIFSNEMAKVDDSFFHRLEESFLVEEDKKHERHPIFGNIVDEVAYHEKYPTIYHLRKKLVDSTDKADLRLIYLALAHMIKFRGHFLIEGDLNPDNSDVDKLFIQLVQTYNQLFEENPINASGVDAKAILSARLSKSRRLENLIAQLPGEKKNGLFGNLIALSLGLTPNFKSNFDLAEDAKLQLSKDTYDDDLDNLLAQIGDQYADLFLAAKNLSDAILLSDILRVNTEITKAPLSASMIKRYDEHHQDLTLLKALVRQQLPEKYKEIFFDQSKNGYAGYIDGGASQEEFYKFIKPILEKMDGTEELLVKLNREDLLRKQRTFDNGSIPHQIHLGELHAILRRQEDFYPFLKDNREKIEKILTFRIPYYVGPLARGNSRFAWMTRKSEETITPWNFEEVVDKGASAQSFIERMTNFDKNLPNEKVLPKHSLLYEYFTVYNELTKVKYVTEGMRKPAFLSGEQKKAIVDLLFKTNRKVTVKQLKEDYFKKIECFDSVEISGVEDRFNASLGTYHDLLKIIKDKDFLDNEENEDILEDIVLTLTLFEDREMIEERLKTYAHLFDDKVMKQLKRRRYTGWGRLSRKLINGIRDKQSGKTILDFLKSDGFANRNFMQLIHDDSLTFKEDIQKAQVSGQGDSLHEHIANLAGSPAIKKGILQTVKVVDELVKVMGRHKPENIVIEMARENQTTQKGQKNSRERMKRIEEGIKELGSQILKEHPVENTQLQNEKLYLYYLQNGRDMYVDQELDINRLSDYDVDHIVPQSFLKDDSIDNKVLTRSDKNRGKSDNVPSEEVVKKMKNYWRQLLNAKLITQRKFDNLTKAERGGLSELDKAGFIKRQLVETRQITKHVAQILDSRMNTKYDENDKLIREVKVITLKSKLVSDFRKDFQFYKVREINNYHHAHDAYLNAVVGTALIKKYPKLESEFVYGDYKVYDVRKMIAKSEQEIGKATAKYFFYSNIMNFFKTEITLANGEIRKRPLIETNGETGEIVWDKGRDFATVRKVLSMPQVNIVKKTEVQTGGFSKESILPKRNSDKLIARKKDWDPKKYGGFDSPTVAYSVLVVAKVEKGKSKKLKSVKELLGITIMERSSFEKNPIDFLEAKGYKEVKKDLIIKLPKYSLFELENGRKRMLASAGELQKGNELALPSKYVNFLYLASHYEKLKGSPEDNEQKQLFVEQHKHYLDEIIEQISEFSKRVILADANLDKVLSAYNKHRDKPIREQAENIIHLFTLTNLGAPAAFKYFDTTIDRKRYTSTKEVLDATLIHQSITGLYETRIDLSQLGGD", "assay": "fluorescence titration; 5 nM CY5-CAS9:sgRNA (1:1) titrated with peptide, quadratic fit", "conditions": "remark: other sources report otherwise", "note": "No end group written: not given here."}
{"binder": "GLWRALWRLLRSLWRLLWKV (also: acetate salt)", "note": "[CADY]", "values": [{"measurement": "Kd", "result": 21, "unit": "nM"}]}
